From US20040141968A1

Experiments:
[1] = molecular target: recombinant soluble CMV envelope glycoprotein B (human cytomegalovirus) (UniProt P13201); assay: SPR (Biacore); DC-SIGN CRD injected over immobilised CMV gB; Langmuir fit, average
[2] = molecular target: recombinant soluble CMV envelope glycoprotein B (human cytomegalovirus) (UniProt P13201); assay: SPR (Biacore); DC-SIGN CRD injected over immobilised CMV gB; from koff/kon

Sequence of recombinant soluble CRD of DC-SIGN (amino acids 254-404) (Q9NNX6 254-404 limits assumed): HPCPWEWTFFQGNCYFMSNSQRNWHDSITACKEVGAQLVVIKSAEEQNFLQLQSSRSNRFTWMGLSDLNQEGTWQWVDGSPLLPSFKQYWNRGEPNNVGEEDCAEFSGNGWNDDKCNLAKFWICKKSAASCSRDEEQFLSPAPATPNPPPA

recombinant soluble CRD of DC-SIGN (amino acids 254-404) (from UniProt Q9NNX6 254-404) (receptor)
koff [1]: 0.00126 s⁻¹ | kon [1]: 4400 M⁻¹ s⁻¹ | Kd [2]: 290 nM
